According to article PMC2700067, “Intracellular interactions between APOBEC3G, RNA, and HIV-1 Gag: APOBEC3G multimerization is dependent on its association with RNA” (Retrovirology, 2009):

Legend:
Test in all cases: split reporter (BiFC, NanoBiT); BiFC quantified by flow cytometry: 293T cells co-transfected with 0.25 μg of each BiFC construct and mRFP1, harvested about 14 h after transfection and fixed; percent of mRFP+ cells that are YFP+, and mean intensity of YFP+ cells
Details in all cases: partners not purified
H65R-CY = molecular target: T1, H65R-CY (human, UniProt Q9HC16 1-384, H65R)
T1 construct: APOBEC3G (A3G), human, CD1 mutant H65R; as A3G-CY with the mutation; also called CD1 mutant H65R of A3G-CY; source: HeLa and 293T cells, transfected, in living cells; 293T, transfected, in lysate (co-IP); not shown: CY (YFP residues 173-238), C-terminal, kept

F70A-CY = molecular target: T2, F70A-CY (human, UniProt Q9HC16 1-384, F70A)
T2 construct: APOBEC3G (A3G), human, CD1 mutant F70A; as A3G-CY with the mutation; also called CD1 mutant F70A of A3G-CY; source: HeLa and 293T cells, transfected, in living cells; 293T, transfected, in lysate (co-IP); not shown: CY (YFP residues 173-238), C-terminal, kept

Y91A-CY = molecular target: T3, Y91A-CY (human, UniProt Q9HC16 1-384, Y91A)
T3 construct: APOBEC3G (A3G), human, CD1 mutant Y91A; as A3G-CY with the mutation; also called CD1 mutant Y91A of A3G-CY; source: HeLa and 293T cells, transfected, in living cells; not shown: CY (YFP residues 173-238), C-terminal, kept

B1: H65R-NY (natural protein, human, UniProt Q9HC16 1-384, looked up)
chain: MKPHFRNTVERMYRDTFSYNFYNRPILSRRNTVWLCYEVKTKGPSRPPLDAKIFRGQVYSELKYRPEMRFFHWFSKWRKLHRDQEYEVTWYISWSPCTKCTRDMATFLAEDPKVTLTIFVARLYYFWDPDYQEALRSLCQKRDGPRATMKIMNYDEFQHCWSKFVYSQRELFEPWNNLPKYYILLHIMLGEILRHSMDPPTFTFNFNNEPWVRGRHETYLCYEVERMHNDTWVLLNQRRGFLCNQAPHKHGFLEGRHAELCFLDVIPFWKLDLDQDYRVTCFTSWSPCFSCAQEMAKFISKNKHVSLCIFTARIYDDQGRCQEGLRTLAEAGAKISIMTYSEFKHCWDTFVDHQGCPFQPWDGLDEHSQDLSGRLRAILQNQEN
notes: APOBEC3G (A3G), human, CD1 mutant H65R; as A3G-NY with the mutation; also called CD1 mutant H65R of A3G-NY; source: HeLa and 293T cells, transfected, in living cells; not shown: NY (YFP residues 1-172), C-terminal, kept
H65R-CY
  percent of mRFP+ cells that are YFP+ (BiFC): < 0.1%

B2: F70A-NY (natural protein, human, UniProt Q9HC16 1-384, looked up)
chain: MKPHFRNTVERMYRDTFSYNFYNRPILSRRNTVWLCYEVKTKGPSRPPLDAKIFRGQVYSELKYHPEMRAFHWFSKWRKLHRDQEYEVTWYISWSPCTKCTRDMATFLAEDPKVTLTIFVARLYYFWDPDYQEALRSLCQKRDGPRATMKIMNYDEFQHCWSKFVYSQRELFEPWNNLPKYYILLHIMLGEILRHSMDPPTFTFNFNNEPWVRGRHETYLCYEVERMHNDTWVLLNQRRGFLCNQAPHKHGFLEGRHAELCFLDVIPFWKLDLDQDYRVTCFTSWSPCFSCAQEMAKFISKNKHVSLCIFTARIYDDQGRCQEGLRTLAEAGAKISIMTYSEFKHCWDTFVDHQGCPFQPWDGLDEHSQDLSGRLRAILQNQEN
notes: APOBEC3G (A3G), human, CD1 mutant F70A; as A3G-NY with the mutation; also called CD1 mutant F70A of A3G-NY; source: HeLa and 293T cells, transfected, in living cells; not shown: NY (YFP residues 1-172), C-terminal, kept
F70A-CY
  percent of mRFP+ cells that are YFP+ (BiFC): < 0.1%

B3: Y91A-NY (natural protein, human, UniProt Q9HC16 1-384, looked up)
chain: MKPHFRNTVERMYRDTFSYNFYNRPILSRRNTVWLCYEVKTKGPSRPPLDAKIFRGQVYSELKYHPEMRFFHWFSKWRKLHRDQEYEVTWAISWSPCTKCTRDMATFLAEDPKVTLTIFVARLYYFWDPDYQEALRSLCQKRDGPRATMKIMNYDEFQHCWSKFVYSQRELFEPWNNLPKYYILLHIMLGEILRHSMDPPTFTFNFNNEPWVRGRHETYLCYEVERMHNDTWVLLNQRRGFLCNQAPHKHGFLEGRHAELCFLDVIPFWKLDLDQDYRVTCFTSWSPCFSCAQEMAKFISKNKHVSLCIFTARIYDDQGRCQEGLRTLAEAGAKISIMTYSEFKHCWDTFVDHQGCPFQPWDGLDEHSQDLSGRLRAILQNQEN
notes: APOBEC3G (A3G), human, CD1 mutant Y91A; as A3G-NY with the mutation; also called CD1 mutant Y91A of A3G-NY; source: HeLa and 293T cells, transfected, in living cells; not shown: NY (YFP residues 1-172), C-terminal, kept
Y91A-CY
  percent of mRFP+ cells that are YFP+ (BiFC): < 0.1%
